Results published in the supplement of paper PMC10567573.

B1: KLHL13 (parent)
chain: GVSKVGLRKIIDFIYTAKLSLNMD

Variants of: B1
Assay: protein stability index of a GFP-peptide fusion (GPS, HEK-293T) (PSI 1-6); higher = more stable
Details: c terminus: a fixed tail appended
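Also: lentivirally expressed fusions sorted by FACS into six bins by GFP to DsRed ratio, PSI derived from sequencing read proportions per bin multiplied by bin number.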

Variant | protein stability index
GVSKVGLRKIIDFIYTAKLVLNMD [S20V] | 1.96
GVSKVGLRKIIDFIYTAKLHLNMD [S20H] | 2.7
GVSKVGLRKIIDFIYTAKLLLNMD [S20L] | 2.67
GVSKVGLRKIIDFIYTAKLNLNMD [S20N] | 3.26
GVHKVGLRKIIDFIYTAKLSLNMD [S3H] | 3.22
GVTKVGLRKIIDFIYTAKLSLNMD [S3T] | 2.37
GVMKVGLRKIIDFIYTAKLSLNMD [S3M] | 2.17
GVKKVGLRKIIDFIYTAKLSLNMD [S3K] | 2.31
GVVKVGLRKIIDFIYTAKLSLNMD [S3V] | 4.55
GVRKVGLRKIIDFIYTAKLSLNMD [S3R] | 2.45
GVQKVGLRKIIDFIYTAKLSLNMD [S3Q] | 2.92
GVSKVGLREIIDFIYTAKLSLNMD [K9E] | 1.78
GVSKVGLRNIIDFIYTAKLSLNMD [K9N] | 3.3
GVSKVGLRGIIDFIYTAKLSLNMD [K9G] | 1.91
GVSKVGLRAIIDFIYTAKLSLNMD [K9A] | 4.24
GVSKVGLRVIIDFIYTAKLSLNMD [K9V] | 4.21
GVSKVGLRYIIDFIYTAKLSLNMD [K9Y] | 2.81
GVSKVGLRCIIDFIYTAKLSLNMD [K9C] | 3.38
GVSKVGLRSIIDFIYTAKLSLNMD [K9S] | 2.4
GVSKVGLRKIIDFIYYAKLSLNMD [T16Y] | 2.74
GVSKVGLRKIIDFIYVAKLSLNMD [T16V] | 1.81
GVSKVGLRKIIDFIYIAKLSLNMD [T16I] | 2.72
GVSKVGLRKIIDFIYHAKLSLNMD [T16H] | 1.63
GVSKVGLRKIIDFIYEAKLSLNMD [T16E] | 1.95

Variant | protein stability index
GVSKVGLRKIIDFIYMAKLSLNMD [T16M] | 1.95
GVSKVGLRKIIDFIYRAKLSLNMD [T16R] | 2.69
GVSKVGLRKIIDFLYTAKLSLNMD [I14L] | 2.9
GVSKVGLRKIIDFVYTAKLSLNMD [I14V] | 2.43
GVSKVGLRKIIDFCYTAKLSLNMD [I14C] | 2.44
GVSKVGLRKIIDFHYTAKLSLNMD [I14H] | 1.34
GVSKVGLRKIIDFSYTAKLSLNMD [I14S] | 2.02
GVSKVGLRKIIDFEYTAKLSLNMD [I14E] | 2.31
GVSKVGLRKIIDFWYTAKLSLNMD [I14W] | 3.72
GVSKVGLRKIIDFKYTAKLSLNMD [I14K] | 1.94
GVSKVGLRKIIDFPYTAKLSLNMD [I14P] | 2.12
GVSKVGLRKIIDFGYTAKLSLNMD [I14G] | 3.7
GVSKVGLRKIIDFDYTAKLSLNMD [I14D] | 1.86
GVSKVGLRKIIDFYYTAKLSLNMD [I14Y] | 2.27
GVSKVGLRKIIDFAYTAKLSLNMD [I14A] | 2.38
GVSKVGLRKIIDFIYTAWLSLNMD [K18W] | 2.7
GVSKVGLRKIIDFIYTACLSLNMD [K18C] | 2.46
GVSKVGLRKIIDFIYTAHLSLNMD [K18H] | 2.72
GVSKVGLRKIIDFIYTAMLSLNMD [K18M] | 2.52
GVSKVGLRKIIDFIYTALLSLNMD [K18L] | 1.76
GVSKVGLRKIIDFIYTAYLSLNMD [K18Y] | 2.88
GVSKVGLRKIISFIYTAKLSLNMD [D12S] | 3.08
GVSKVGLRKIIGFIYTAKLSLNMD [D12G] | 3.19
GVSKVGLRKIIQFIYTAKLSLNMD [D12Q] | 2.36

Variant | protein stability index
GVSKVGLRKIIIFIYTAKLSLNMD [D12I] | 2.57
GVSKVGLRKIIMFIYTAKLSLNMD [D12M] | 1.62
GVSKVGLRKIIEFIYTAKLSLNMD [D12E] | 2.27
GVSKVGLRKIINFIYTAKLSLNMD [D12N] | 1.55
GVSKVGLRKIILFIYTAKLSLNMD [D12L] | 2.27
GVSHVGLRKIIDFIYTAKLSLNMD [K4H] | 2.18
GVSDVGLRKIIDFIYTAKLSLNMD [K4D] | 4.34
GVSIVGLRKIIDFIYTAKLSLNMD [K4I] | 1.94
GVSYVGLRKIIDFIYTAKLSLNMD [K4Y] | 1.85
GVSTVGLRKIIDFIYTAKLSLNMD [K4T] | 4.12
GVSEVGLRKIIDFIYTAKLSLNMD [K4E] | 2.77
GVSFVGLRKIIDFIYTAKLSLNMD [K4F] | 3.29
GVSMVGLRKIIDFIYTAKLSLNMD [K4M] | 2.42
GVSKVGLRKIIDFIYTAKLSLVMD [N22V] | 1.32
GVSKVGLRKIIDFIYTAKLSLSMD [N22S] | 2.36
GVSKVGLRKIIDFIYTAKLSLQMD [N22Q] | 1.9
GVSKVGLRKIIDFIYTAKLSLPMD [N22P] | 4.34
GVSKVGLRKIIDFIYTAKLSLMMD [N22M] | 2.26
GVSKVGLRKIIDFIYTAKLSLFMD [N22F] | 3.75
GVSKVGLRKIIDFIYTAKLSLIMD [N22I] | 2.68
GVSKVGLRKIIDFIYTAKLSLEMD [N22E] | 2.73
GVSKVGLRKIIDFIYTAKLSLRMD [N22R] | 2.09
GVSKVGLRKIIDFIYTAKLSLDMD [N22D] | 2.3
GVSKVGLRKIIDFIYTAKLSLHMD [N22H] | 2.41

Variant | protein stability index
GVSKVGLRKIIDFIYTAKLSLAMD [N22A] | 3.65
GVSKVGLRKIIDFIYTAKLSSNMD [L21S] | 2.72
GVSKVGLRKIIDFIYTAKLSCNMD [L21C] | 2.69
GVSKVGLRKIIDFIYTAKLSENMD [L21E] | 1.53
GVSKVGLRKIIDFIYTAKLSQNMD [L21Q] | 3.01
GVSKVGLRKIIDFIYTAKLSNNMD [L21N] | 1.83
GVSKVGLRKIIDFIYTAKLSFNMD [L21F] | 2.21
GVSKVGLRKIIDFIYTAKLSWNMD [L21W] | 1.96
GVSKVGLRKIIDKIYTAKLSLNMD [F13K] | 1.66
GVSKVGLRKIIDSIYTAKLSLNMD [F13S] | 1.44
GVSKVGLRKIIDNIYTAKLSLNMD [F13N] | 1.48
GVSKVGLRKIIDQIYTAKLSLNMD [F13Q] | 1.04
GVSKVGLRKIIDVIYTAKLSLNMD [F13V] | 3.34
GVSKVGLRKIIDDIYTAKLSLNMD [F13D] | 1.7
GVSKVGLRKIIDGIYTAKLSLNMD [F13G] | 2.41
GVSKVGLRKIIDTIYTAKLSLNMD [F13T] | 1.93
GVSKVGLRKIIDCIYTAKLSLNMD [F13C] | 2.83
AVSKVGLRKIIDFIYTAKLSLNMD [G1A] | 3.93
NVSKVGLRKIIDFIYTAKLSLNMD [G1N] | 2.53
PVSKVGLRKIIDFIYTAKLSLNMD [G1P] | 1.75
QVSKVGLRKIIDFIYTAKLSLNMD [G1Q] | 2.05
KVSKVGLRKIIDFIYTAKLSLNMD [G1K] | 2.08
